According to the supplement of paper PMC10899765:

Legend:
Conditions in all cases: 20 nM; 72 h
[1] = system: MCF10A; assay: 5+ nucleoli phenotype percent effect (relative to siNT 0% and siKIF11 100%); higher = more cells with five or more nucleoli
Experimental: (§1)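 After 72 h, cells were fixed and stained with Hoechst and anti-fibrillarin, and nucleoli per nucleus were counted with CellProfiler. Values are plate-adjusted percent effect for the one-nucleolus and 5+ nucleoli phenotypes, normalised to siNT (0%) and to the positive controls siNOL11 or siKIF11 (100%), as the mean of biological triplicates. Percent viability is the nuclei count relative to siNT.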

[2] = system: MCF10A; assay: one-nucleolus phenotype percent effect (relative to siNT 0% and siNOL11 100%); higher = more cells with one nucleolus (ribosome biogenesis inhibition)
Experimental: as §1

[3] = system: MCF10A; assay: percent viability (nuclei count relative to siNT); higher = more viable cells
Experimental: as §1

Sequence | 5+ nucleoli phenotype percent effect [1] [%] | one-nucleolus phenotype percent effect [2] [%] | percent viability [3] [%]
UUCUGCCUCUGUCCAGGUCCUU [hsa-miR-5001-3p] | -28.1 | 19.3 | 39.1
UUCUGCUGCCGGCCAAGGC [hsa-miR-6071] | -25.7 | 22.1 | 27.8
UUCUGGAAUUCUGUGUGAGGGA [hsa-miR-1299] | -3.13 | 19.2 | 58.7
UUCUGGAUAACAUGCUGAAGCU [hsa-miR-5706] | 51.3 | -32.6 | 176
UUCUGGAUAUGAAGACAAUCAA [hsa-miR-4782-5p] | -38.6 | 44.9 | 16.3
UUCUUUGUUUUUAAUUCACAG [hsa-miR-6844] | 8.6 | -15.7 | 70
UUGAAAGGCUAUUUCUUGGUC [hsa-miR-488-3p] | -44.7 | 39.9 | 36.8
UUGAACUGUUAAGAACCACUGGA [hsa-miR-203b-3p] | -29.1 | 29.5 | 36.7
UUGAAGAGGAGGUGCUCUGUAGC [hsa-miR-4709-3p] | -33 | 29.5 | 28
UUGAAGGGACAAGUCAGAUAUGCC [hsa-miR-6864-5p] | -1.47 | 17.8 | 25.6
UUGAAUUCUUGGCCUUAAGUGAU [hsa-miR-4452] | -9.56 | -19.4 | 42.1
UUGAGAAUGAUGAAUCAUUAGG [hsa-miR-580] | 25.6 | -18.3 | 91.4
UUGAGGAAAAGAUGGUCUUAUU [hsa-miR-3915] | -19 | -3.96 | 36.5
UUGAGGAGACAUGGUGGGGGCC [hsa-miR-4689] | 2.8 | 12.3 | 103
UUGAGGGGAGAAUGAGGUGGAGA [hsa-miR-6734-5p] | 2.95 | -5.42 | 35
UUGAUCUCGGAAGCUAAGC [hsa-miR-7641] | 6.46 | -20.1 | 82.6
UUGCACUCUGGCCUUCUCCCAGG [hsa-miR-7703] | -11.1 | 23 | 25
UUGCAGCUGCCUGGGAGUGACUUC [hsa-miR-1301] | -32.5 | 26.9 | 49
UUGCAGCUGCGGUUGUAAGGU [hsa-miR-5047] | -30.3 | 11.1 | 36.3
UUGCAUAGUCACAAAAGUGAUC [hsa-miR-153] | 83 | -31.1 | 116

Sequence | 5+ nucleoli phenotype percent effect [1] [%] | one-nucleolus phenotype percent effect [2] [%] | percent viability [3] [%]
UUGCAUAUGUAGGAUGUCCCAU [hsa-miR-448] | 34 | -2.74 | 75.6
UUGCAUGUCAGAUUGUAAUUCCC [hsa-miR-4666b] | -10.4 | 5.21 | 64.4
UUGCCACACUGCAACACCUUACA [hsa-miR-3064-3p] | -31.2 | 8.14 | 39.1
UUGCCAGGGCAGGAGGUGGAA [hsa-miR-5006-5p] | -13.7 | 0.389 | 69.9
UUGCCAUACAUAGACUUUAUU [hsa-miR-5590-5p] | -33.2 | 33.6 | 44.8
UUGCCAUGUCUAAGAAGAA [hsa-miR-4659b-5p] | -38.1 | 29.7 | 42
UUGCCUGCCCUCUUCCUCCAG [hsa-miR-6894-3p] | -20.1 | 22.3 | 24.2
UUGCUAAGUAGGCUGAGAUUGA [hsa-miR-4639-5p] | -11.6 | 11.8 | 22.7
UUGCUAGUUGCACUCCUCUCUGU [hsa-miR-449c-3p] | -15.1 | 7.23 | 27.2
UUGCUCACUGUUCUUCCCUAG [hsa-miR-1178-3p] | -31.4 | 0.794 | 50.3
UUGCUCCUGACUCUGUGCCCACA [hsa-miR-6772-3p] | -4.99 | 1.77 | 32.5
UUGCUCUGAGCUCCGAGAAAGC [hsa-miR-5691] | -16.4 | -10.3 | 48.2
UUGCUCUGCUCCCCCGCCCCCAG [hsa-miR-6805-3p] | 43.1 | -15.8 | 36.2
UUGCUUGAACCCAGGAAGUGGA [hsa-miR-1273e] | -48.1 | 53.6 | 29
UUGGAAGCUUGGACCAACUAGCUG [hsa-miR-6079] | -27.8 | 28.7 | 31.5
UUGGAAUAGGGGAUAUCUCAGC [hsa-miR-6505-5p] | -46.6 | 29.1 | 36.9
UUGGACAGAAAACACGCAGGAA [hsa-miR-4520a-3p] | -25 | -3.29 | 59.1
UUGGACGGUAAGGUUAAGCAA [hsa-miR-4804-5p] | -12.4 | 9.42 | 35.3
UUGGACUUUUUCAGAUUUGGGGAU [hsa-miR-5009-5p] | -5.29 | 19.8 | 43.5
UUGGAGGCGUGGGUUUU [hsa-miR-4443] | -29.8 | 61.2 | 20.9

Sequence | 5+ nucleoli phenotype percent effect [1] [%] | one-nucleolus phenotype percent effect [2] [%] | percent viability [3] [%]
UUGGAGGGUGUGGAAGACAUC [hsa-miR-6515-5p] | -18.5 | 40.1 | 19
UUGGCCACAAUGGGUUAGAAC [hsa-miR-588] | 11.2 | 9.67 | 40.2
UUGGCCACCACACCUACCCCUU [hsa-miR-4701-5p] | 19.1 | 1.71 | 35.9
UUGGCCAUGGGGCUGCGCGG [hsa-miR-3187-3p] | 12.9 | -2.01 | 30.1
UUGGCUGGUCUCUGCUCCGCAG [hsa-miR-6842-3p] | -0.515 | 19.7 | 24.9
UUGGGACAUACUUAUGCUAAA [hsa-miR-1302] | -1.97 | -3.28 | 46.9
UUGGGAGGGAAGACAGCUGGAGA [hsa-miR-6780a-5p] | -30.2 | 55 | 13.4
UUGGGAUCAUUUUGCAUCCAUA [hsa-miR-450b-3p] | -2.46 | -1.71 | 42.8
UUGGGAUGGUAGGACCAGAGGGG [hsa-miR-6728-5p] | 24.3 | -15.8 | 50.3
UUGGGCCCAGGAGUAAACAGGAU [hsa-miR-6773-5p] | -4.65 | -0.04 | 40.3
UUGGGCUGGGCUGGGUUGGG [hsa-miR-1587] | -22.5 | 29.2 | 19.9
UUGGGGAAACGGCCGCUGAGUG [hsa-miR-2110] | -27.7 | 45.4 | 42.2
UUGGGGAUUGGGUCAGGCCAGU [hsa-miR-6857-5p] | -18 | 29.9 | 6.01
UUGGGGGUGAGGUUGGUGUCUGG [hsa-miR-6751-5p] | -13.1 | 13.4 | 7.37
UUGGGGUGGAGGGCCAAGGAGC [hsa-miR-6819-5p] | 2.57 | 37.8 | 3.49
UUGGGGUGGUCGGCCCUGGAG [hsa-miR-6737-5p] | -19.8 | 48.7 | 7.13
UUGGGGUUUGGGGUGCAGACAUUGC [hsa-miR-6855-5p] | -2.12 | 34.4 | 9.03
UUGGGUUUUCUCUUCAAUCCAG [hsa-miR-6839-3p] | -18.2 | 14.2 | 22.3
UUGGUGAGGACCCCAAGCUCGG [hsa-miR-7855-5p] | -27.6 | 73.9 | 7.91
